Measurements taken from patent publication US20220162261A1 (published 2022).
Bridge positions count the residues as written; N and C are the ends. Square brackets hold non-standard residues; d marks the D form. 2Nal = N[C@@H](Cc1ccc2ccccc2c1)C(=O)O; NMeR = CN[C@@H](CCCNC(=N)N)C(=O)O; β3hE = N[C@@H](CCC(=O)O)CC(=O)O; Pen = CC(C)(S)[C@H](N)C(=O)O

B1: SEQ ID NO: 213 (peptide)
peptide: Ac-[Pen][NMeR]SDTL[Pen]W[β3hE][dK]-NH2
modifications: disulfide 1-7; not fully specified (residue 10); printed as (Ac Pen N-Me-R S D T L Pen W b-h-E k NH2)2 DIG, disulfide Pen-Pen; also: dimer, two subunits joined by DIG linker
notes: also called peptide 213; Peptide XX
B2: SEQ ID NO: 217 (peptide)
peptide: Ac-[Pen][NMeR]SDTL[Pen]WE[dK]-NH2
modifications: disulfide 1-7; not fully specified (residue 10); printed as (Ac Pen N-Me-R S D T L Pen W E k NH2)2 DIG, disulfide Pen-Pen; also: dimer, two subunits joined by DIG linker
notes: also called peptide 217
B3: Peptide Z-biotin (peptide)
peptide: Ac-[Pen][NMeR]SDTL[Pen]WE[dK]-NH2
modifications: disulfide 1-7; not fully specified (residue 10); printed as (Ac-Pen-(N-Me-Arg)-S-D-T-L-Pen-W-E-k-NH2)2-DIG; also: homodimer: two subunits joined by DIG linker, biotin label, attachment not given here

Target: T1, rh integrin α4β7 (R&D Systems #5397-A30) (human, UniProt P13612 34-970; P26010 20-723)
T1 construct: bought; coated on a nickel coated plate; also called immobilized α4β7; immobilized α4β7 integrin protein
Experiment: competition ELISA vs MAdCAM-1

IC50	Binder
2.3 nM	XRSDTLXWK ((Ac Pen N-Me-R S D T L Pen W k NH2)2 DIG; disulfide Pen-Pen, also called peptide 209) [SEQ ID NO: 209]
4.7 nM	B1
2.3 nM	B2
7.5 nM	Ac-C[NMeR]SDTL[Pen][dK]-NH2 (disulfide 1-7; also: homodimer via IDA linker on D-Lys8 side chains, also called peptide 203) [SEQ ID NO: 203]
3 nM	Ac-[Pen][NMeR]SDTL[Pen]W[dE][dK]-NH2 (disulfide 1-7; also: dimer, two subunits joined by DIG linker, also called peptide 211) [SEQ ID NO: 211]
2 nM	Ac-C[NMeR]SDTL[Pen]W[dK]-NH2 (disulfide 1-7; also: homodimer via DIG linker on D-Lys9 side chains, also called peptide 204) [SEQ ID NO: 204]

Target: T2, soluble α4β7 integrin (UniProt P13612 34-970; P26010 20-723, limits assumed)
T2 construct: analyte of the SPR experiment
Experiment: SPR, binder on streptavidin chip, soluble α4β7

Half-life for dissociation	Kd	koff	Binder
3.53 h	52.1 nM	5.46e-05 s⁻¹	B3

Target: T3, mouse α4β7 integrin on TK1 cells (mouse, UniProt Q00651 41-1039; P26011 20-806)
T3 construct: whole, on cells; also called α4β7 cell (Mu); Cell Adhesion α4β7 Mouse
Experiment: TK1 cell adhesion to MAdCAM-1

T3 sequence (Q00651 41-1039, chain 1 of 2): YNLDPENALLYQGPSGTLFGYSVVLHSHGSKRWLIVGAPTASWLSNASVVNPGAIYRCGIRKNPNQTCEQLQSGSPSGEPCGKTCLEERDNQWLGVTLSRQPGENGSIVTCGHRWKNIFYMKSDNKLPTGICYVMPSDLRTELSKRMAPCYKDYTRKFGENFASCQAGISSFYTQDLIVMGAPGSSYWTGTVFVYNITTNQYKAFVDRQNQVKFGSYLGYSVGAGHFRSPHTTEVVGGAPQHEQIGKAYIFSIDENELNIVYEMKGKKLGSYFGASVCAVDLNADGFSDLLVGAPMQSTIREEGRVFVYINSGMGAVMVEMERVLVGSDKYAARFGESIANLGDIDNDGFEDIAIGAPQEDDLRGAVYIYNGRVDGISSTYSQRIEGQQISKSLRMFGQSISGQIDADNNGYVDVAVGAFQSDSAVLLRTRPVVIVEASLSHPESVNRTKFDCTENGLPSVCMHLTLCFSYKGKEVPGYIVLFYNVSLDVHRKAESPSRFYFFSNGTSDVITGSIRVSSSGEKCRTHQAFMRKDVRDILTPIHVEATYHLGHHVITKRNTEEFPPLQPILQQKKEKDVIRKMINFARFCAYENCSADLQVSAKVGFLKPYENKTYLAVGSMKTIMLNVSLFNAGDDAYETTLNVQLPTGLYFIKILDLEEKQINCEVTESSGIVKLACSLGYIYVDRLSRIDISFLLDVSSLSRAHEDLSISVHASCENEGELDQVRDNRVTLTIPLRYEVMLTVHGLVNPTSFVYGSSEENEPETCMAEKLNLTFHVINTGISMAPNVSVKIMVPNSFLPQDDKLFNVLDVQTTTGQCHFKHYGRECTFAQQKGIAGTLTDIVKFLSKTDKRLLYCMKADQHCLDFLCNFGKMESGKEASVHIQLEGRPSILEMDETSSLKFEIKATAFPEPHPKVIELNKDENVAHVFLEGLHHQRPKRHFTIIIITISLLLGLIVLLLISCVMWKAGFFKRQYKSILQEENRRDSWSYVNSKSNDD
T3 sequence (P26011 20-806, chain 2 of 2): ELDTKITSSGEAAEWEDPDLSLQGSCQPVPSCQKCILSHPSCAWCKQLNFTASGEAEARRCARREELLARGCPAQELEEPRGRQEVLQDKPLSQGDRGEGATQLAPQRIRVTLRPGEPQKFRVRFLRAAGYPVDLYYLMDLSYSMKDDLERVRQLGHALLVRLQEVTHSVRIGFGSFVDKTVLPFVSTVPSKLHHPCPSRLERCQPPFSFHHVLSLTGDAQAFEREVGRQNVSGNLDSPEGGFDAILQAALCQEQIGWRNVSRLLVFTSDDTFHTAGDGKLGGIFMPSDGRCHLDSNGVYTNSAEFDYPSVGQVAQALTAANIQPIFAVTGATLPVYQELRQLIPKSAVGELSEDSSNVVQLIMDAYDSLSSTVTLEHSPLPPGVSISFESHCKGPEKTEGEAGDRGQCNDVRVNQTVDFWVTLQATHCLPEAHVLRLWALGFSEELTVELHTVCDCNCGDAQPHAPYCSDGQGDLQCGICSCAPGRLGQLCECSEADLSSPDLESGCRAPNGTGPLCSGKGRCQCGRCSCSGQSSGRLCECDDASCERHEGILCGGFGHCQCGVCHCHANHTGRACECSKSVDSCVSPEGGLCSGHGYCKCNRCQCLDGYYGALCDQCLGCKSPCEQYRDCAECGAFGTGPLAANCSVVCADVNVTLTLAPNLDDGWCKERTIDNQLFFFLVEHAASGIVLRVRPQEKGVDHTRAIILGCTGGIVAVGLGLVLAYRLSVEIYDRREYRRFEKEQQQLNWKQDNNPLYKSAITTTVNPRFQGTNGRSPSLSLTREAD

IC50	Binder
51 nM	XRSDTLXWK ((Ac Pen N-Me-R S D T L Pen W k NH2)2 DIG; disulfide Pen-Pen, also called peptide 209) [SEQ ID NO: 209]
4.2 nM	B1
1.2 nM	B2
633 nM	Ac-C[NMeR]SDTL[Pen][dK]-NH2 (disulfide 1-7; also: homodimer via IDA linker on D-Lys8 side chains, also called peptide 203) [SEQ ID NO: 203]
7.3 nM	Ac-[Pen][NMeR]SDTL[Pen]W[dE][dK]-NH2 (disulfide 1-7; also: dimer, two subunits joined by DIG linker, also called peptide 211) [SEQ ID NO: 211]

Target: T4, human α4β1 integrin on cells (human, UniProt P13612 34-1032; P05556 21-798)
T4 construct: whole, on cells; also called α4β1 cell; Jurkat cells
Experiment: Jurkat cell adhesion to VCAM-1

IC50	Binder
> 100000 nM	XRSDTLXWK ((Ac Pen N-Me-R S D T L Pen W k NH2)2 DIG; disulfide Pen-Pen, also called peptide 209) [SEQ ID NO: 209]
> 100000 nM	B1
> 100000 nM	B2
> 100000 nM	Ac-C[NMeR]SDTL[Pen][dK]-NH2 (disulfide 1-7; also: homodimer via IDA linker on D-Lys8 side chains, also called peptide 203) [SEQ ID NO: 203]
> 100000 nM	Ac-[Pen][NMeR]SDTL[Pen]W[dE][dK]-NH2 (disulfide 1-7; also: dimer, two subunits joined by DIG linker, also called peptide 211) [SEQ ID NO: 211]
> 100000 nM	Ac-C[NMeR]SDTL[Pen]W[dK]-NH2 (disulfide 1-7; also: homodimer via DIG linker on D-Lys9 side chains, also called peptide 204) [SEQ ID NO: 204]

Target: T5, human α4β7 integrin on cells (human, UniProt P13612 34-1032; P26010 20-798)
T5 construct: whole, on cells; also called α4β7 cell (Hu); RPMI8866 cells
Experiment: RPMI8866 cell adhesion to MAdCAM-1

IC50	Binder
24 nM	XRSDTLXWK ((Ac Pen N-Me-R S D T L Pen W k NH2)2 DIG; disulfide Pen-Pen, also called peptide 209) [SEQ ID NO: 209]
12 nM	B1
3.2 nM	B2
200 nM	Ac-C[NMeR]SDTL[Pen][dK]-NH2 (disulfide 1-7; also: homodimer via IDA linker on D-Lys8 side chains, also called peptide 203) [SEQ ID NO: 203]
22 nM	Ac-[Pen][NMeR]SDTL[Pen]W[dE][dK]-NH2 (disulfide 1-7; also: dimer, two subunits joined by DIG linker, also called peptide 211) [SEQ ID NO: 211]
22 nM	Ac-C[NMeR]SDTL[Pen]W[dK]-NH2 (disulfide 1-7; also: homodimer via DIG linker on D-Lys9 side chains, also called peptide 204) [SEQ ID NO: 204]

Target: T5, human α4β7 integrin on cells
Experiment: PBMC memory T cell adhesion

IC50	Binder
260 nM	XRSDTLXWK ((Ac Pen N-Me-R S D T L Pen W k NH2)2 DIG; disulfide Pen-Pen, also called peptide 209) [SEQ ID NO: 209]
1280 nM	Ac-C[NMeR]SDTL[Pen]W[dK]-NH2 (disulfide 1-7; also: homodimer via DIG linker on D-Lys9 side chains, also called peptide 204) [SEQ ID NO: 204]

Target: T6, α4β1 (R&D Systems #5668-A4) (UniProt P13612 34-970; P05556 21-728, limits assumed)
T6 construct: bought; also called soluble α4β1
Experiment: competition ELISA vs VCAM-1

IC50	Binder
368 nM	XRSDTLXWK ((Ac Pen N-Me-R S D T L Pen W k NH2)2 DIG; disulfide Pen-Pen, also called peptide 209) [SEQ ID NO: 209]
539 nM	B1
315 nM	B2
700 nM	Ac-C[NMeR]SDTL[Pen][dK]-NH2 (disulfide 1-7; also: homodimer via IDA linker on D-Lys8 side chains, also called peptide 203) [SEQ ID NO: 203]
302 nM	Ac-[Pen][NMeR]SDTL[Pen]W[dE][dK]-NH2 (disulfide 1-7; also: dimer, two subunits joined by DIG linker, also called peptide 211) [SEQ ID NO: 211]
463 nM	Ac-C[NMeR]SDTL[Pen]W[dK]-NH2 (disulfide 1-7; also: homodimer via DIG linker on D-Lys9 side chains, also called peptide 204) [SEQ ID NO: 204]

Target: human α4β1 integrin on cells (human) (UniProt P13612)
Experiment: Jurkat cell adhesion to VCAM-1

IC50	Binder
> 100000 nM	Ac-[Pen][NMeR]SDTL[Pen][2Nal][dE][dK]-NH2 (disulfide 1-7; also: dimer (…)2 DIG, attachment not given here) [SEQ ID NO: 33]
